Test results reported in the supplement of paper PMC7877785.
± gives the uncertainty stated by the source.

Test: self-splicing fitness, log relative to wild type (ln ratio); higher = more splicing; Tetrahymena group I intron in knt gene, E. coli kanamycin selection, DiMSum; sequences stand for … in CUCUCU…GGAGGGAAAAGUUAUCAGGCAUGCACCUGGUAGCUAGUCUUUAAACCAAUAGAUUGCAUCGGUUUAAAAGGCAAGACCGUCAAAUUGCGGGAAAGGGGUCAACAGCCGUUCAGUACCAAGUCUCAGGGGAAACUUUGAGAUGGCCUUGCAAAGGGUAUGGUAAUAAGCUGACGGACAUGGUCCUAACCACGCAGCCAAGUCCUAAGUCAACAGAUCUUCUGUUGAUAUGGAUGCAGUUCACAGACUAAAUGUCGGUCGGGGAAGAUGUAUUCUUCUCAUAAGAUAUAGUCGGACCUCUCCUUAAUGGGAGCUAGCGGAUGAAGUGAUGCAACACUGGAGCCGCUGGGAACUAAUUUGUAUGCGAAAGUAUAUUGAUUAGUUUUGGAGUACUCGUGGUCG
Procedure, shortened: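 The eight P1ex-region nucleotides of an intron in the knt kanamycin-resistance gene on pET-22b(+) were all randomised and the library put into E. coli BL21(DE3). Six replicate transformations were grown overnight at 37°C or 30°C on LB agar with or without 25 μg/mL kanamycin, together with 100 μg/mL carbenicillin, 50 μM IPTG and 0.2% rhamnose. Colonies were pooled and amplicon-sequenced on an Illumina HiSeq 2500. Fitness from DiMSum is the error-weighted combination of wild-type-normalised replicate fold changes, kanamycin over none.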

| Sequence | self-splicing fitness (ln) (30 °C) | self-splicing fitness (ln) (37 °C) |
| --- | --- | --- |
| AGAAAGCAAUAUUACGAUGC | -2.16 ± 0.14 | -1.38 ± 0.13 |
| AUGUAGCAAUAUUACGAGAU | -2.04 ± 0.14 | -0.409 ± 0.13 |
| AAAAAGCAAUAUUACGAUGA | -0.913 ± 0.064 | -0.139 ± 0.084 |
| AUUCAGCAAUAUUACGCGCC | -1.17 ± 0.15 | 0.194 ± 0.21 |
| UCUGAGCAAUAUUACGAAUG | -2.96 ± 0.26 | -1.66 ± 0.21 |
| CGUAAGCAAUAUUACGAAAC | -2.84 ± 0.32 |  |
| AACCAGCAAUAUUACGUGCG | -0.832 ± 0.053 | -0.365 ± 0.064 |
| CUAUAGCAAUAUUACGCUUA | -2.47 ± 0.24 | -2.34 ± 0.3 |
| CAUCAGCAAUAUUACGUCGA | -3 ± 0.21 | -2.66 ± 0.24 |
| ACUCAGCAAUAUUACGAAGA | -0.868 ± 0.1 | -0.958 ± 0.11 |
| ACUGAGCAAUAUUACGCGUU | -3.38 ± 0.17 | -1.51 ± 0.13 |
| GUUCAGCAAUAUUACGAGGU | -2.25 ± 0.12 | -0.472 ± 0.13 |
| UUCAAGCAAUAUUACGAUAG | -1.81 ± 0.14 | -0.986 ± 0.17 |
| UGCCAGCAAUAUUACGUACU | 0.158 ± 0.14 | -1.19 ± 0.19 |
| GUUAAGCAAUAUUACGUCCG | -1.77 ± 0.17 | -0.533 ± 0.23 |
| CUCCAGCAAUAUUACGAGGG | -3.65 ± 0.17 | -2.89 ± 0.25 |
| CAGGAGCAAUAUUACGAUGU | -4 ± 0.21 | -2.91 ± 0.17 |
| CGAUAGCAAUAUUACGACAU | -3.167 ± 0.021 | -1.95 ± 0.035 |
| GUACAGCAAUAUUACGUAAC | -2.18 ± 0.14 | -1.11 ± 0.12 |
| UUCCAGCAAUAUUACGGGAU | -3.25 ± 0.11 | -3.13 ± 0.19 |

| Sequence | self-splicing fitness (ln) (30 °C) | self-splicing fitness (ln) (37 °C) |
| --- | --- | --- |
| UGGUAGCAAUAUUACGUAUC |  | -2.38 ± 0.45 |
| GCCGAGCAAUAUUACGGAGG | -3.45 ± 0.18 | -2.1 ± 0.21 |
| AGUAAGCAAUAUUACGAUGU | -3.05 ± 0.15 | -1.17 ± 0.13 |
| ACCGAGCAAUAUUACGUUCA | -1.34 ± 0.13 | -0.705 ± 0.1 |
| GACAAGCAAUAUUACGCGUU | -4.47 ± 0.34 | -3 ± 0.35 |
| GGAGAGCAAUAUUACGCUGG | -2.21 ± 0.29 | -2.41 ± 0.44 |
| GAAGAGCAAUAUUACGAUCU | -1.21 ± 0.14 | -0.955 ± 0.18 |
| AUCAAGCAAUAUUACGCACG | -2.1 ± 0.15 | -2.28 ± 0.18 |
| UAAUAGCAAUAUUACGAACG | -0.579 ± 0.071 | -0.187 ± 0.082 |
| UCUCAGCAAUAUUACGCUUC | -2.92 ± 0.21 | -2.33 ± 0.28 |
| GCAGAGCAAUAUUACGUUCU | -2.78 ± 0.24 | -2.18 ± 0.29 |
| CCAUAGCAAUAUUACGGAUC | -1.97 ± 0.41 | -1.72 ± 0.32 |
| GACAAGCAAUAUUACGGGGG | -3.58 ± 0.15 | -3.18 ± 0.2 |
| CAUCAGCAAUAUUACGGCAG | -0.68 ± 0.076 | 0.196 ± 0.09 |
| AUGUAGCAAUAUUACGCCGG | -2.45 ± 0.17 | -0.942 ± 0.33 |
| CAUGAGCAAUAUUACGAACG | -0.482 ± 0.082 | -0.421 ± 0.088 |
| UUUUAGCAAUAUUACGGAUU | -1.8 ± 0.1 | -1.36 ± 0.15 |
| UUUCAGCAAUAUUACGUUAG | -1.31 ± 0.11 | -0.474 ± 0.12 |
| UACGAGCAAUAUUACGGCGU | -2.83 ± 0.33 | -1.73 ± 0.29 |
| AAUCAGCAAUAUUACGGCAC | -0.508 ± 0.086 | -0.24 ± 0.12 |

| Sequence | self-splicing fitness (ln) (30 °C) | self-splicing fitness (ln) (37 °C) |
| --- | --- | --- |
| CGGUAGCAAUAUUACGCAGC | -2.14 ± 0.24 | -1.72 ± 0.31 |
| CCCAAGCAAUAUUACGAAGA | -3.32 ± 0.2 | -2.59 ± 0.2 |
| UAUGAGCAAUAUUACGAUAA | -3.74 ± 0.33 | -2.74 ± 0.27 |
| UUGUAGCAAUAUUACGUUGU | -3.77 ± 0.27 | -2.81 ± 0.24 |
| GUCCAGCAAUAUUACGCAAU | -0.658 ± 0.071 | 0.419 ± 0.087 |
| CACCAGCAAUAUUACGUCAU | -4.12 ± 0.17 | -2.27 ± 0.14 |
| ACCGAGCAAUAUUACGGCAU | -1.09 ± 0.09 | -0.529 ± 0.11 |
| AUGUAGCAAUAUUACGACUA | -0.419 ± 0.27 | -0.536 ± 0.31 |
| AGCAAGCAAUAUUACGGCUU | -3.17 ± 0.18 | -0.891 ± 0.12 |
| UGGUAGCAAUAUUACGUCGA | -0.768 ± 0.1 | 0.144 ± 0.1 |
| UUGUAGCAAUAUUACGUAAU | -2.9 ± 0.22 | -2.37 ± 0.24 |
| AUCCAGCAAUAUUACGUUAU | -1.36 ± 0.072 | -0.198 ± 0.089 |
| UCUUAGCAAUAUUACGCACU | -2.05 ± 0.33 | -0.732 ± 0.36 |
| GCGGAGCAAUAUUACGGCGA | -1.5 ± 0.23 | -1.29 ± 0.28 |
| AUGAAGCAAUAUUACGCAAG | -0.379 ± 0.085 | -0.121 ± 0.11 |
| AACAAGCAAUAUUACGACGU | 0.394 ± 0.063 | 0.441 ± 0.07 |
| CAACAGCAAUAUUACGGAAA | -3.2 ± 0.17 | -2.27 ± 0.18 |
| CGCUAGCAAUAUUACGACUC | -1.4 ± 0.1 | -1.61 ± 0.15 |
| UAGCAGCAAUAUUACGUACG | -1.2 ± 0.072 | -0.47 ± 0.1 |
| AAGUAGCAAUAUUACGUAUA | -1.96 ± 0.13 | -2.15 ± 0.14 |
